± gives the half width of the 95% confidence interval.
What was measured:
[1] = folding stability dG unfold from trypsin proteolysis; higher = more stable
In short: (§1)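 Designed mini-proteins (under 80 residues, no cysteine) in a PA-tagged cDNA display construct were digested with trypsin and chymotrypsin. Each protease was used at 11 concentrations (threefold dilutions) plus a no-protease condition, followed by sequencing. K50 was inferred by Bayesian fitting of sequencing counts, and unfolding free energy was derived against a sequence-predicted unfolded-state K50 and a shared folded-state K50, per protease or combined. Only designs with AlphaFold2 dimer inter-PAE above 15 were kept.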

[2] = folding stability dG unfold from chymotrypsin proteolysis; higher = more stable
In short: as §1

[3] = folding stability dG unfold (combined trypsin and chymotrypsin); higher = more stable
In short: as §1

Sequence | folding stability dG unfold [1] | folding stability dG unfold [2] | folding stability dG unfold [3]
SAGGSYTVEELPPGGILRITFTVPKSRPAEVPLELKAPDGTPVDVESYSITPVGDTNVITYTIKVPLSAGGS [r16_499_JUSTAS] | 1.57 ± 0.049 kcal/mol | 1.81 ± 0.15 kcal/mol | 1.85 ± 0.11 kcal/mol
SAGKVKIEVEEVPPNVKKVKVESLEELLEAAKKLPPGAVVEVELEDGSKVTVVLNKDGKVVEVKKEPVPSAG [r5_506_TrROS_Hall] | 2.61 ± 0.35 kcal/mol | 0.9 ± 0.16 kcal/mol | 1.58 ± 0.27 kcal/mol
SAGGSAKKPKPVKYNVVITLKDGKTITLTLPFGSLEKAKEFIEKNFPDAIVTYNPKTGNVTVYLPVSAGGSA [r15_313_TrMRF] | 1.87 ± 0.035 kcal/mol | 3.543 ± 0.03 kcal/mol | 3.16 ± 0.12 kcal/mol
SAGGSAGGSASMGVVDEFVVYVPGEKGEEVEVKVYKDPNSDRYIVEIKGKKIPVTDEKKALLSAGGSAGGSA [r18_67_JUSTAS] | 0.41 ± 0.068 kcal/mol | 0.0997 ± 0.33 kcal/mol | 0.447 ± 0.26 kcal/mol
SAVVLKEPGPVTTVVTTDPATGVTTTVTTDPSAGTTTVTTTDPASAAVTTTTYTTLPDGTPVPTTTTTPASA [r9_1073_JUSTAS] | 1.22 ± 0.031 kcal/mol | 0.86 ± 0.032 kcal/mol | 1.05 ± 0.038 kcal/mol
SATREIELPGKKITIHHNPGNNMFRITIYDPKPGKPVEIPIPANNPGMTMENIIDQIREAAKKGRPVRISAG [r14_157_TrROS] | 0.85 ± 0.036 kcal/mol | 0.671 ± 0.079 kcal/mol | 0.885 ± 0.082 kcal/mol
SAGGSAGGSAGSSSISRETFDPETGLRYVYDPETDTITVIDLSNNKVVKTTPVGPEELERSAGGSAGGSAGG [r17_271_JUSTAS] | 0.244 ± 0.068 kcal/mol | 1.95 ± 0.022 kcal/mol | 1.55 ± 0.07 kcal/mol
SAGGSAGGSAMELVVKEVEYRGPLSLSIEEIAEEIEKKEGIKVIELEEYPDEKVKITIEKVSAGGSAGGSAG [r3_66_JUSTAS] | -0.463 ± 0.16 kcal/mol | 0.764 ± 0.12 kcal/mol | 0.485 ± 0.19 kcal/mol
SAGGSDEHEYKGTGRDPDNGQTREETYRVEPVVPPIPISISVSLNLDIDPNGNLNWDFNISIGIGISAGGSA [r2_326_TrROS] | 2.78 ± 0.2 kcal/mol | 3.81 ± 0.33 kcal/mol | 3.33 ± 0.37 kcal/mol
SAGGSAGGSASMKEVTILVKKKLPGGEEEESVTTVTLNPNEIDKVKEEFKKKGWEVVKVVSSAGGSAGGSAG [r3_453_JUSTAS] | 1.23 ± 0.017 kcal/mol | 1.74 ± 0.034 kcal/mol | 1.56 ± 0.045 kcal/mol
SAGGSAGGSAGMTLEELERLGYKVEVFRHPDTPEVYVRVEYPVPPGGLKRAVIPLKDVKLSAGGSAGGSAGG [r17_311_TrMRF] | -1.35 ± 0.52 kcal/mol | 0.93 ± 0.077 kcal/mol | 0.499 ± 0.039 kcal/mol
SAGSPSIVRTPSLTYDPDPRNPSTPRLRQASVTATNPNGETITFTFTSLEDMDAALNAWIAANPELLSSAGG [r19_123_JUSTAS] | 0.59 ± 0.11 kcal/mol | 1.74 ± 0.089 kcal/mol | 1.38 ± 0.08 kcal/mol
SAMTLTLEFENLKDLTEEEIEEALKEAGLPGVKILGIKKTSEKWTITIAYDSSTPKEKIEAAIKKAVAESAG [r14_657_JUSTAS] | 5.03 ± 0.35 kcal/mol | 4.64 ± 0.13 kcal/mol | 4.56 ± 0.18 kcal/mol
SAGGSAGGSAGHIPIIFQFEFEHYDPDDGKPKEHRWVIVIEFDGNGIKNIRIIPKEDAKKLLSAGGSAGGSA [r18_406_TrROS] | 2.31 ± 0.085 kcal/mol | 2.28 ± 0.047 kcal/mol | 2.25 ± 0.14 kcal/mol
SAMKVYKAKVTIVDEEGNLLDEIELEFETEEELKEKVLEELGVSEEEIVEIELSPEVSEEEFEKKLKLESAG [r14_852_JUSTAS] | -0.425 ± 0.25 kcal/mol | 0.776 ± 0.15 kcal/mol | 0.347 ± 0.14 kcal/mol
SAGGSAMRMERIKLPDGKDITIMRHPNEPRQYQLFFPGGRSISVNFPSPEEAIDHALEWIKNGKPFSAGGSA [r15_38_TrROS] | 0.609 ± 0.12 kcal/mol | 0.764 ± 0.13 kcal/mol | 0.78 ± 0.097 kcal/mol
SAGGSAMPIELDLVIEIPIDAHPDQTVEDLVEEIAERIRRLLPPDTVVELRVHLHPELGVALADVSSAGGSA [r15_739_TrMRF] | 1.56 ± 0.039 kcal/mol | 0.117 ± 0.087 kcal/mol | 0.988 ± 0.081 kcal/mol
SAGGKITIEVTYNKETGEITIRITFNGKTIEIKIKVPGLSEEEVKKLAEELAKKLKEKYGIDKVEITSAGGS [r16_249_TrROS_Hall] | 4.36 ± 0.45 kcal/mol | 4.4 ± 0.11 kcal/mol | 4.36 ± 0.29 kcal/mol
SMKPGDKLLIRIRLPPVKVEREYFDKDGKLVKKETKEVKEVELVIELSPEELEKLRELLKELGFEVEILPSA [r9_167_TrROS_Hall] | 2.83 ± 0.16 kcal/mol | 2.4 ± 0.055 kcal/mol | 2.5 ± 0.16 kcal/mol
SADGKVKVVVNLRITVTPLSPDGTPQPLPAASIPLVFEGDANDPEAVEQAVRDVLDALAPLFPDAEIVVDSA [r9_1112_TrMRF] | 1.23 ± 0.082 kcal/mol | 1.98 ± 0.046 kcal/mol | 1.73 ± 0.13 kcal/mol
SMMYLVNLRVEVYKDGKLVEEKEIAIAAPVEEALKIAEAIKESHPDAEVKVEIEVYEIPEDDPEFKEAFASA [r9_782_TrMRF] | 2.25 ± 0.082 kcal/mol | 2.87 ± 0.033 kcal/mol | 2.68 ± 0.089 kcal/mol

Sequence | folding stability dG unfold [1] | folding stability dG unfold [2] | folding stability dG unfold [3]
SAGMTTLTLSAKAPPGEAVVTLTVTLPDGTTVPLATRTVAPDEVANITVSFPSGEPIDPARLTVEVTPPSAG [r5_287_JUSTAS] | 0.0521 ± 0.14 kcal/mol | 0.137 ± 0.15 kcal/mol | 0.157 ± 0.13 kcal/mol
SAGGGPLSPGSVPVEEEVTEVVEDPATGTVTTRSRVRYPDGVEVEVTTTTPAPGLPEVSTTEVTVRPASAGG [r13_894_JUSTAS] | 0.978 ± 0.044 kcal/mol | 0.948 ± 0.018 kcal/mol | 0.929 ± 0.11 kcal/mol
SAGGSAKLNITKILSVEFSEDGTIRIKVENENGELYELEIKVKVIPPPEKPEIDPKYLTPEDLEKYSAGGSA [r15_41_TrMRF] | 1.43 ± 0.029 kcal/mol | 1.61 ± 0.11 kcal/mol | 1.6 ± 0.12 kcal/mol
SAGMPPPEEVFVVKVRFDGKELTLVVRVPPGMSAEEVAKKLAEELRKKFGPDIEVEVRRVSREELLEALSAG [r5_583_TrROS_Hall] | 3.66 ± 0.13 kcal/mol | 2.95 ± 0.12 kcal/mol | 3.23 ± 0.18 kcal/mol
SAGEKTVKIKLPNTKTITVKVKKNEKKILYLPNGEKILITDVKKGKVSLKKGITYVKDKNGKWYPLKYKSAG [r5_417_TrMRF] | 0.332 ± 0.15 kcal/mol | 1.86 ± 0.079 kcal/mol | 1.37 ± 0.1 kcal/mol
SAGGSAKPKRFVALIKLKGPEGKEIAEIPIVISPDKPEVDIDEIAREIAEKLGVEEIEAEIKEIEESAGGSA [r15_333_TrMRF] | 0.48 ± 0.13 kcal/mol | 0.633 ± 0.2 kcal/mol | 0.498 ± 0.28 kcal/mol
SAGGSAGGSAGLKPEVEALVRVVLKLPEGERVVLVKVKTLEELFELDLPEVVSIEIRPLKSAGGSAGGSAGG [r17_290_TrMRF] | 1.28 ± 0.028 kcal/mol | 1.73 ± 0.049 kcal/mol | 1.6 ± 0.064 kcal/mol
SAGGSAGGSAGGGSMSITVPMSPEEGKKLAEEIKEKLKSEGNPVEVTVTIVSPTDPSLLSSAGGSAGGSAGG [r7_776_JUSTAS] | 0.627 ± 0.04 kcal/mol | 0.167 ± 0.066 kcal/mol | 0.41 ± 0.17 kcal/mol
SAGGMTYVLPNGERLLVRVSVRTEPRLDPDRPELVLEPRVEIELFAVSPDLTLRPVPEELARELFEKESAGG [r13_809_TrMRF] | 0.891 ± 0.019 kcal/mol | 1.33 ± 0.07 kcal/mol | 1.21 ± 0.044 kcal/mol
MLVVEVPAEELSPEQVRERIRAALRAAREAGIRDARIVIVVEASEEQRERLRRELRELAEEEGLEVEIVERS [r1_387_TrROS_Hall] | 4.83 ± 0.17 kcal/mol | 5.52 ± 0.2 kcal/mol | 5.34 ± 0.18 kcal/mol
SAGGSATLTLEAEFRLEDGTTVRVRVEVSPDGTVRIEVEVLPAPPPPPKVEVKEVFTTADGRKVLLSAGGSA [r2_78_TrROS_Hall] | 1.2 ± 0.035 kcal/mol | 1.62 ± 0.063 kcal/mol | 1.57 ± 0.1 kcal/mol
SAGGSAGGSAGGKIKLTVTVDADGNATVTLEIEVESPEDKPFTIRLTLTFPLKDGESLTSAGGSAGGSAGGS [r10_763_TrMRF] | 3.9 ± 0.29 kcal/mol | 3.88 ± 0.12 kcal/mol | 3.82 ± 0.17 kcal/mol
SAGGSMIVIVEIKPDGTIKIKVRTKDGKEKTIEISKEELEKEETPEEIAEKLAKEFEKEGVEEIEISAGGSA [r2_249_TrROS_Hall] | 2.88 ± 0.26 kcal/mol | 2.19 ± 0.54 kcal/mol | 2.26 ± 0.32 kcal/mol
SAGGKYGYKIEIEIAIFRIPPGAEVEPERIGNIEIYRIRFPDGNWLIMIRIKVKPMPPPPPEKKDNDDSAGG [r13_804_TrROS] | 3.61 ± 0.22 kcal/mol | 4.7 ± 0.23 kcal/mol | 4.22 ± 0.34 kcal/mol
SAGGSAGGSAGVIVTPEGDRIVTYDPNTGSVTVTPLDAAGNPLTTTVVAPNGPVVTVTELSAGGSAGGSAGG [r17_385_JUSTAS] | 1.66 ± 0.055 kcal/mol | 0.871 ± 0.018 kcal/mol | 1.22 ± 0.034 kcal/mol
SAGMTIKIKNKKTNKVITIERRPDGTTVKVKVYDKNGKLVKTYPEGMTLEELLKKFPNAKVEVVEVEKPSAG [r5_314_TrROS_Hall] | 1.47 ± 0.033 kcal/mol | 0.559 ± 0.11 kcal/mol | 1.14 ± 0.07 kcal/mol
SAGGSAGGSAGGSGLSFEIVEEREELLPDGRPRRRIFATLPGGRRLVIDDDGRITIDPDSAGGSAGGSAGGS [r4_111_TrMRF] | 0.45 ± 0.33 kcal/mol | 0.968 ± 0.15 kcal/mol | 0.897 ± 0.25 kcal/mol
SAGGSAGGSAGGMTVERREVFPLGESLVITETREVLDPSSDVPVTVETRVEVLPPEVPPSAGGSAGGSAGGS [r10_599_JUSTAS] | -1.32 ± 0.74 kcal/mol | 0.25 ± 0.12 kcal/mol | 0.033 ± 0.18 kcal/mol
SAGGMSVSFPVDSSEELKKLLPKDYLVEIVSTPPDGSKSVRVVRPEDLEIDLPEGEKYYFEIKFLPKESAGG [r13_461_TrMRF] | 0.442 ± 0.072 kcal/mol | -0.138 ± 0.093 kcal/mol | 0.203 ± 0.19 kcal/mol
SAGGSAGGSMEEIIEEIKKKVPKDKYAEIEIEVPFPDGSKKKFKIKFYPETNEFEVEELEEIPSAGGSAGGS [r12_305_TrMRF] | 3.12 ± 0.26 kcal/mol | 4.12 ± 0.23 kcal/mol | 3.88 ± 0.24 kcal/mol
SAPWRITDIDVKRHPNGRVRVTIRFPHPNMSVEIWLDKDGELDVEVSPDMRNHPPWFQNMIRDVAKELLSAG [r14_555_TrROS] | 2.77 ± 0.1 kcal/mol | 1.33 ± 0.11 kcal/mol | 2.15 ± 0.1 kcal/mol

— the supplement of paper PMC12764529
